How the values were obtained:
[1] = molecular target: T1, Hgd (S-hydroxymethyl glutathione dehydrogenase) (Methylobacterium aquaticum, UniProt A0A0C6FVV4); assay: NADH formation at […] nm in cell-free extract, hgd deletion mutant as control; format: biochemical; conditions: S-hydroxymethylglutathione formed in situ from formaldehyde and glutathione; NAD, sodium phosphate pH 7, premix at 25 °C
T1 construct: gene adhC; native enzyme in cell-free extract of strain 22A; activity absent in the hgd deletion mutant

purified protein [2] = substrate: CO; assay: purified protein; format: biochemical, Methylobacterium aquaticum; conditions: PMS and DCPIP as electron acceptors, ammonium chloride, La3+-loaded enzyme (0.58 La per monomer), Tris-HCl pH 9.0, 30 °C
purified protein [3] = substrate: C=O; assay: purified protein; format: biochemical, Methylobacterium aquaticum; conditions: PMS and DCPIP as electron acceptors, ammonium chloride, La3+-loaded enzyme (0.58 La per monomer), Tris-HCl pH 9.0, 30 °C, formaldehyde prepared from autoclaved paraformaldehyde

T1 sequence (A0A0C6FVV4 entry or part of it): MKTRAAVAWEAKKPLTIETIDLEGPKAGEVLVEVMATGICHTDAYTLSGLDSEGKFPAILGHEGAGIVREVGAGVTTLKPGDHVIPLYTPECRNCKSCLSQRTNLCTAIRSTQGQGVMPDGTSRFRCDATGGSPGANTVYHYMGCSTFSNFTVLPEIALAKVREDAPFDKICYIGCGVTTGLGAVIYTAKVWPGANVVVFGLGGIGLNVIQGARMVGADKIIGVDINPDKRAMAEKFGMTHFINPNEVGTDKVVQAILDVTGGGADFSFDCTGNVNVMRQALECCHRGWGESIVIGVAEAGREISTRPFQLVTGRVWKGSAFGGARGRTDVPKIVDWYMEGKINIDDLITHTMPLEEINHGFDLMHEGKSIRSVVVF

Molecule: N[C@@H](CCC(=O)N[C@@H](CSCO)C(=O)NCC(=O)O)C(=O)O [S-hydroxymethyl glutathione]
- NADH formation at 340 nm in cell-free extract, hgd deletion mutant as control [1]: hgd indeed encodes S-hydroxymethylglutathione dehydrogenase

B1: XoxF1-His (XoxF1, Ln3+-dependent methanol dehydrogenase) (Methylobacterium aquaticum) (protein)
chain: NEDVLKRTANPAEQVLQTVDYANTRYSKLDQINAGNVNKLQVAWTFSTGVLRGHEGSPLVVGDVMYVHTPFPNIVYALDLNQDGKILWKYEPKQDPNVIPVMCCDTVNRGLAYADGAIFLHQADTTIVSLDAKSGKVNWSVQNGDPKIGETNTATVLPVKDKLIVGIAGAEYGIRGHITAYDLKTGKQAWRAYNLGPDAEMKIDPEKTTELGKPVGKDSSIKTWEGDQWKTGGASTWGWYSYDPKLNLVYYGTGNPSTWNPKQRPGDNKWSMTIFARDADTGVAKWVYQMTPHDEWDYDGINEMILTDQKIGDKERPLLTHFDRNGFGYTLDRATGELLVAEKYDPAVNWATKVDQDKSSKTYGRPLVVAKYSTDQNGEDTNSKGICPAALGSKDQQPAAYSPKTNLFYVPTNHVCMDYEPFRVSYTPGQPYVGATLSMYPAPNSHGGMGNFIAWDGTAGKIKWSNPEQFSVWSGALATAGDVVFYGTLEGYLKAVDSKTGKELYKFKTPSGIIGNVMTFQHKGKQNIAVLSGVGGWAGIGLAAGLTDPNAGLGAVGGYAALSSYTNLGGQLTVFNLPN
notes: His-tagged (primer-encoded at 3' end, C-terminal), tag kept; Ni-NTA; ca. 60 kDa monomer
- Km (purified protein [2]): 30 µM
- Km (purified protein [3]): 340 µM

— article PMC7356819, “Lanthanide-Dependent Methanol and Formaldehyde Oxidation in Methylobacterium aquaticum Strain 22A” (Microorganisms, 2020)
